Experiment [1] relates to CCC4 osteoblast cell line, serum response element (SRE) luciferase. The experiment is described as follows: SRE-luciferase assay in CCC4 osteoblast cell line. The experiment is classed as cell-based, mice. The settings on record: 1000 ng/ml zsig37, four hours. How it is done:
Zsig37 polypeptides were assayed in a high throughput, in vitro assay to identify substances that selectively activate cellular responses in immortalized osteoblast cell lines. A mature osteoblast cell line derived from p53−/− (deficient) mice, CCC4, that is transfected with a plasmid containing an inducible serum response element (SRE) driving the expression of luciferase was used in the assay. These cells also express endogenous PTH, PDGF and bFGF receptors.
CCC4 lines were trypsinized and adjusted to 5×10^4 cells/ml in plating medium (alpha-MEM, 1% heat inactivated fetal bovine serum, 1 mM Na pyruvate and 2 mM L-glutamate) and plated (200 μl/well) into Dynatech Microlite opaque white microtiter plates (Dynatech, Chantilly, Va.) and incubated overnight at 37° C., 5% CO2. The growth medium was then aspirated and replaced with 50 μl/well assay medium (F-12 HAM, 0.5% bovine serum albumin, 20 mM HEPES, 1 mM sodium pyruvate and 2 mM L-glutamate). […] Fifty microliters/well of luciferase substrate (Luciferase Assay Reagent, E1501, Promega Corp.) was added and the Luciferase activity was detected using a Labsystems LUMINOSKAN at 2 second/well following a one second delay. The average basal (uninduced) signal was subtracted from readings as a percentage of the maximal induction produced by 3 ng/ml bFGF. […]

For another experiment, the target named is T1, collagen type VI (Homo sapiens, UniProt P12109+P12110+P12111).
T1 construct: purchased Chemicon International; Temecula, Calif
The experiment is described as follows: Quantitative ELISA binding to collagen type VI. The following applies: Zsig37-FITC 0.4 to 4 μg/ml, 10 μg collagen type VI. How it is done: An ELISA (Enzyme-linked Immunosorbant Assay) was used to measure binding of zsig37 to complement C1q, and to the following matrix proteins: Bovine Collagen Type I (Becton Dickinson; Lincoln Park, N.J.), laminin, vitronectin, fibronectin, human collagen Types II, III, IV, V, VI (Chemicon International; Temecula, Calif.). BSA V (Sigma Chemical Co.) was used as a negative control. Just prior to use, the proteins were diluted in 2× PBS (Phosphate Buffered Saline, Sigma Chemical Co.) to 100 μg/ml and adjusted to pH 7.2 with 0.1 N NaOH. Each protein sample was plated in quadruplicate (100 μl/well) into a 96 well plate. The plate was allowed to dry overnight in a laminar flow hood and washed three times with 400 μl of 5 mg/ml BSA in 1× PBS and blotted dry. Zsig37 was FITC labeled according to manufacturer's instruction (Pierce; Rockford, Ill.). Into each well was added 100 μl of 1.8 μg/ml zsig37-FITC in 5% BSA, PBS. The plates were incubated for 1.5 hours at room temperature then washed 3 time with 5% BSA, PBS. To each well was then added 100 μl of 1:400 mouse anti-FITC/Biotin (Sigma Chemical Co.). […]
The ELISA assay for binding, described above, was modified to quantitatively evaluate binding. […] The luminescence from the SUPERSIGNAL reagent was read on a Wallac 1420 plate reader (Wallac; Gaithersburg Md.) and the intensity used as a quantitative measure of the zsig37-FITC bound to the ELISA plate.

For experiment [2], the system named is classical pathway of human Complement serum. The experiment is described as follows: Complement hemolysis assay, classical pathway (sheep erythrocytes). The class given is biochemical. How it is done:
Complement assays were performed in 96 well round bottom plates. Gelatin Veronal buffer containing magnesium and calcium (141 mM NaCl, 1.8 mM sodium barbitol, 3.1 mM barbituric acid, 0.1% bovine gelatin, 0.5 mM MgCl2 and 0.15 mM CaCl2) was used for all serum and inhibitor dilutions as well as erythrocyte suspensions. Fifty microliters of standardized human Complement serum (Sigma Chemical Co.), diluted 1/37.5 (for a final dilution of 1/150) was added to each well. The inhibitor was added in triplicate, 50 μl/well. The serum and inhibitor were incubated for thirty minutes at room temperature. The assay was initiated by the addition of 100 μl of 2×10^8/ml unsensitized sheep erythrocytes (Colorado Serum Co.; Denver, Colo.), sensitized sheep erythrocytes, sensitized using the Hemolysin manufacturer's protocol (BioWhittaker Inc.; Walkersville, Md.) and rabbit erythrocytes containing 16 mM EGTA, and 4 mM Mg^++. A human serum dilution series from 1/50 to 1/400 was also plated as an activity control. Erythrocytes, lysed with distilled water and diluted to 100, 75, 50, 25, and 12.5 percent lysis, were used to quantify complement percent lysis. The plate was sealed and incubated at 37° C. for one hour with mixing every 15 minutes. […] The plate was read at 415 nm and percent lysis was calculated.

T1 sequence (P12109 20-1028): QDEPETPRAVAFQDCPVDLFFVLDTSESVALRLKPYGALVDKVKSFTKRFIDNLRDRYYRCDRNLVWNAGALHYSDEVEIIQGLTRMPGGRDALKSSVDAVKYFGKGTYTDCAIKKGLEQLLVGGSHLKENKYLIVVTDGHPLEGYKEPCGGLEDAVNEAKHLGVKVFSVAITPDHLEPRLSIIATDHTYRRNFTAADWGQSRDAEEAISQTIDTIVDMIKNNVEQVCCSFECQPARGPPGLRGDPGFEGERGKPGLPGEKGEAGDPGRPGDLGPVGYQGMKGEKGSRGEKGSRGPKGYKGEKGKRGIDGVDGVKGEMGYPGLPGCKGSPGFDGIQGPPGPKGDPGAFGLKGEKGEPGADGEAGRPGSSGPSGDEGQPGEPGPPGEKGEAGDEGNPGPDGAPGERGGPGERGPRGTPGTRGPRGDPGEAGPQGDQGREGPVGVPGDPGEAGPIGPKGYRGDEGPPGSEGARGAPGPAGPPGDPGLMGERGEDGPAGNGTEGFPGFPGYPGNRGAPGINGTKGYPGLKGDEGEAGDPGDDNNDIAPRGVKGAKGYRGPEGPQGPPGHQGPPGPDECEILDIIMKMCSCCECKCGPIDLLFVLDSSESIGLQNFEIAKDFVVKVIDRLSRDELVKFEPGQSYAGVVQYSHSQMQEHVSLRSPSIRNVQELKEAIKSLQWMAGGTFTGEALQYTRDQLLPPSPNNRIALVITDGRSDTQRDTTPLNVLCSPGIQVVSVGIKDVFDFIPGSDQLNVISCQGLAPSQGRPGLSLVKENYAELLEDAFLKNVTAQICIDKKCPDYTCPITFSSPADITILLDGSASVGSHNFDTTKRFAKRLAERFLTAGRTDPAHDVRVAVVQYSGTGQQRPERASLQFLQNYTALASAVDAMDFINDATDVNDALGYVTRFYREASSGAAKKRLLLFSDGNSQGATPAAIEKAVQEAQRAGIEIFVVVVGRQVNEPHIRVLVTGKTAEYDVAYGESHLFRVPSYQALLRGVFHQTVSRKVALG
T1 sequence (P12110 21-1019): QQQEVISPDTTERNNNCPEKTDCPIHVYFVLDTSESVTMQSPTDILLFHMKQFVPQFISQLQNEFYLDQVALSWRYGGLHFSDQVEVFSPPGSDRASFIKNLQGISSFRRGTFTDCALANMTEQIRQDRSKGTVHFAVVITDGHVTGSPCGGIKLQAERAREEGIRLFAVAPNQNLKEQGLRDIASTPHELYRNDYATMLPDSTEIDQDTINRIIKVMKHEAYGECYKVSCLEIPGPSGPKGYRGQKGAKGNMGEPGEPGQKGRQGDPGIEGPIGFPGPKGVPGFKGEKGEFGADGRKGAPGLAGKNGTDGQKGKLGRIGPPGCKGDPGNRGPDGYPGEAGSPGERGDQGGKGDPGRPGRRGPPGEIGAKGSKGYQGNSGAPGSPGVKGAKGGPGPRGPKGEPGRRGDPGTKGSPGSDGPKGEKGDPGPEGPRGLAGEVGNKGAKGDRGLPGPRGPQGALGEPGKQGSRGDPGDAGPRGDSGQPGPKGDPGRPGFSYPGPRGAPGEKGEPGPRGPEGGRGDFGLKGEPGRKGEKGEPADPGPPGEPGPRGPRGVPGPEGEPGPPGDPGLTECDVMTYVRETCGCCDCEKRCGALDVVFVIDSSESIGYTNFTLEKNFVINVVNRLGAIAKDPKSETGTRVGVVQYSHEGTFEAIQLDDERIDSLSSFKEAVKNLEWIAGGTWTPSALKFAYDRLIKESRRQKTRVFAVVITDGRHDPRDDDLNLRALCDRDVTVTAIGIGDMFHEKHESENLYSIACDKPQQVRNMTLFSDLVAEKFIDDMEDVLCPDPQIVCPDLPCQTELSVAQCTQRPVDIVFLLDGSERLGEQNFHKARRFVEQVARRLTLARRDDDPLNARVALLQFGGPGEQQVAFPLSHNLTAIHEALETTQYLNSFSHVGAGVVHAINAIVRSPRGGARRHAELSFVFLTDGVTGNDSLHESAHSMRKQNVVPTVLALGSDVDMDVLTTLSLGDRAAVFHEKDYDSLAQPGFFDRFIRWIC
T1 sequence (P12111 26-3177): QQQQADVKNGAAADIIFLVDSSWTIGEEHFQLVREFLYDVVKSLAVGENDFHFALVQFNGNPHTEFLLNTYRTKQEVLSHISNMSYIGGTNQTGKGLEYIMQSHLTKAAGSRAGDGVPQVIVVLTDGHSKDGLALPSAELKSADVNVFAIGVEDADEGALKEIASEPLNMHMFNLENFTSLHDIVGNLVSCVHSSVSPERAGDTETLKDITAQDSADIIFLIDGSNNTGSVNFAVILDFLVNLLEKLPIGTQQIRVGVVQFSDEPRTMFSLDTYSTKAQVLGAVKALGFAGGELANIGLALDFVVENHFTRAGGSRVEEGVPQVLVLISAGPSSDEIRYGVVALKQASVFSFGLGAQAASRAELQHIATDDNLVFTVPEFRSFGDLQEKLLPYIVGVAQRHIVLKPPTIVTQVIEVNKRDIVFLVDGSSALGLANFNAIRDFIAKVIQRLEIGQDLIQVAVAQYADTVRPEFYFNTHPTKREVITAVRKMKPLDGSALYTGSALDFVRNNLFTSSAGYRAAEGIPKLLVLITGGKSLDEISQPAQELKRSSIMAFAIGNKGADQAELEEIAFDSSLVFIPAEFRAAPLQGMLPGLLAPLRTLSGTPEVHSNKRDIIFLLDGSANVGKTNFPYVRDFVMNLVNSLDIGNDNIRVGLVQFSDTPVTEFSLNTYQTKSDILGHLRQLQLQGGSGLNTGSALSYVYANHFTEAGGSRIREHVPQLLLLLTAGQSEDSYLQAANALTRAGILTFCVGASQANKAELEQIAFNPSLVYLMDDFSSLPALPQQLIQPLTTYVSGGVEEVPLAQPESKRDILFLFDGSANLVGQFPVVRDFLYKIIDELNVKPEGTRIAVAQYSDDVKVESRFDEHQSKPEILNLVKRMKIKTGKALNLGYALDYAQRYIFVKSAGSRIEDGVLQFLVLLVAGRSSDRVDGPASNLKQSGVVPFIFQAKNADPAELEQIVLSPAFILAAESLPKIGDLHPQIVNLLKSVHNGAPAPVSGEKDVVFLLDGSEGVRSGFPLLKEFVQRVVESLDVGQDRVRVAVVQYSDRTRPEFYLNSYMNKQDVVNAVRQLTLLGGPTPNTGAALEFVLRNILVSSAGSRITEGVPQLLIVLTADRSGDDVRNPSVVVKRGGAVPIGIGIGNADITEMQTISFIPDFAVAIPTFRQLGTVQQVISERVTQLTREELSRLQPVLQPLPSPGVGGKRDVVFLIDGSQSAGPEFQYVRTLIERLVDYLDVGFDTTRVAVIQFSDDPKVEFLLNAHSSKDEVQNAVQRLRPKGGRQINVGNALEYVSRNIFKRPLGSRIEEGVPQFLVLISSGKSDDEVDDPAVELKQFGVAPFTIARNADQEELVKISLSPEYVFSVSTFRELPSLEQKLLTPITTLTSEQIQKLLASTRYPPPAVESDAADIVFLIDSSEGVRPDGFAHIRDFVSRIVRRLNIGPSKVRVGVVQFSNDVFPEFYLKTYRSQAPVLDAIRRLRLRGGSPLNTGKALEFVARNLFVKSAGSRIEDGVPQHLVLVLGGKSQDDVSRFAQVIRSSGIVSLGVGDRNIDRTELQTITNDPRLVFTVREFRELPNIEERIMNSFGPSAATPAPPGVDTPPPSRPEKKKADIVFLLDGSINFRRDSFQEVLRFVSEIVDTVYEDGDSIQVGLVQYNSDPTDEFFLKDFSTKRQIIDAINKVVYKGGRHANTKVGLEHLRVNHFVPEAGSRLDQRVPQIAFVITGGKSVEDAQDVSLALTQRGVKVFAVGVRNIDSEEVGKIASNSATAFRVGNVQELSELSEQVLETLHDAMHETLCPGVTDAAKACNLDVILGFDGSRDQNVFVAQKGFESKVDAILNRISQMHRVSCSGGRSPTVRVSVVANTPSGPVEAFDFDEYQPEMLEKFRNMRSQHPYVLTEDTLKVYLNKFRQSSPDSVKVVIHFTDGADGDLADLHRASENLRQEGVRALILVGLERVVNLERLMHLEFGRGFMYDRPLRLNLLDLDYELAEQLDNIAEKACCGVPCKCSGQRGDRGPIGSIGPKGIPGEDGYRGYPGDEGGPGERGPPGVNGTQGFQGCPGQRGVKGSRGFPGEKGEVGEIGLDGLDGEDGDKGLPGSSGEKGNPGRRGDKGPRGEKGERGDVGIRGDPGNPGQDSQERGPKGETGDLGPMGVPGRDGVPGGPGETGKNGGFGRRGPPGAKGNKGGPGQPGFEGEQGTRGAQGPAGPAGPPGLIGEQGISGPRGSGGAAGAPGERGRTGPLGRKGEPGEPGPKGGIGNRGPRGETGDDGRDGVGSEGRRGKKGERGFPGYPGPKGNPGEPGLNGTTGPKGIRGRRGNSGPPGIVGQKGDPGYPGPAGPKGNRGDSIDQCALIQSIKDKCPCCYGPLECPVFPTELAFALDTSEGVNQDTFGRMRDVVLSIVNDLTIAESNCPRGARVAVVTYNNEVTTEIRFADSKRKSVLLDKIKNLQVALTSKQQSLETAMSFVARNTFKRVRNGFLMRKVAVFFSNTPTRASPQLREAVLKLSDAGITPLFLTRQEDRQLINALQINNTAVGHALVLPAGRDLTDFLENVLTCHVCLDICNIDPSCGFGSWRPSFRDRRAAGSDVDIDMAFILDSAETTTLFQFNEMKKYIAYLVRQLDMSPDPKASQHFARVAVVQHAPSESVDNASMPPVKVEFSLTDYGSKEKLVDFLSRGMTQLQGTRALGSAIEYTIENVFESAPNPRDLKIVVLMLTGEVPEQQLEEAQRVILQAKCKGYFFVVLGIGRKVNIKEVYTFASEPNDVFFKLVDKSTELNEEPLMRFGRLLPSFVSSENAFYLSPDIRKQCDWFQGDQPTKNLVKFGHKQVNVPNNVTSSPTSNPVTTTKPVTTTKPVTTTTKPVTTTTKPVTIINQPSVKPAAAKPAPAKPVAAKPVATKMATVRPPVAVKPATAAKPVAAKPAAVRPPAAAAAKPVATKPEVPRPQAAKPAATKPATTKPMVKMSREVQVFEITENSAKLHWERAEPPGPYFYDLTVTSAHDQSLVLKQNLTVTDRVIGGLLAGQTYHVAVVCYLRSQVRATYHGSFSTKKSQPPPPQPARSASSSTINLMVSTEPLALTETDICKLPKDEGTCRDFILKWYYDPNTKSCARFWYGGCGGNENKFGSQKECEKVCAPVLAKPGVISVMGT

B1: zsig37: adipocyte complement related protein homolog, polypeptide of SEQ ID NO:2, inhibits collagen-mediated platelet activation and the complement pathway (protein, listed as Homo sapiens)
chain: MGSRGQGLLLAYCLLLAFASGLVLSRVPHVQGEQQEWEGTEELPSPPDHAERAEEQHEKYRPSQDQGLPASRCLRCCDPGTSMYPATAVPQINITILKGEKGDRGDRGLQGKYGKTGSAGARGHTGPKGQKGSMGAPGERCKSHYAAFSVGRKKPMHSNHYYQTVIFDTEFVNLYDHFNMFTGKFYCYVPGLYFFSLNVHTWNQKETYLHIMKNEEEVVILFAQVGDRSIMQSQSLMLELREQDQVWVRLYKGERENAIFSEELDTYITFSGYLVKHATEP
As to B1, the “luciferase expression as percentage of the maximal induction produced by 3 ng/ml bFGF” value in experiment [1] lay within 73 to 75%. The “binding curve to collagen type VI” value with collagen type VI was “fits a typical hyperbolic binding curve”. Besides, the “inhibition of classical pathway lysis” value in experiment [2] (sensitized sheep erythrocytes) and in experiment [2] (unsensitized sheep erythrocytes) was “effective in inhibiting the classical pathway” throughout.

Source of the values: US20060252692A1, “Inhibitors for use in hemostasis” (ZymoGenetics, Inc., priority 2002, published 2006).
